Results on 3 molecules are retold here after patent US20130142802A1 (published 2013).

First the molecules themselves.
B2: FGFR2 IIIb-Fc (Fc fusion)
chain: TLEPEDAISSGDDEDDTDGAEDFVSENSNNKRAPYWTNTEKMEKRLHAVPAANTVKFRCPAGGNPMPTMRWLKNGKEFKQEHRIGGYKVRNQHWSLIMESVVPSDKGNYTCVVENEYGSINHTYHLDVVERSPHRPVLQAGLPANASTVVGGDVEFVCKVYSDAQPHIQWIKHVEKNGSKYGPDGLPYLKVLKHSGINSSNAEVLALFNVTEADAGEYICKVSNYIGQANQSAWLTVLPKQQAPGREKEITASPDYLEDKTHTCPPCPAPELLGGPSVFLFPPKPKDTLYITREPEVTCVVVDVSHEDPEVKFNWYVDGVEVHNAKTKPREEQYNSTYRVVSVLTVLHQDWLNGKEYKCKVSNKALPAPIEKTISKAKGQPREPQVYTLPPSREEMTKNQVSLTCLVKGFYPSDIAVEWESNGQPENNYKTTPPVLDSDGSFFLYSKLTVDKSRWQQGNVFSCSVMHEALKFHYTQKSLSLSPGK
notes: also called FGFR2IIIb beta-ECD; FGFR2IIIb-hFc

For assay [1], the target named is T1, Flag-FGFR2-IIIb expressed on CHO cells (human, UniProt P21802 22-821).
T1 construct: whole, on cells; also called CHO-FGFR2-IIIb; FGFR2-IIIb-expressing CHO cells; not shown: Flag-tag at the N-terminus
T1 chain: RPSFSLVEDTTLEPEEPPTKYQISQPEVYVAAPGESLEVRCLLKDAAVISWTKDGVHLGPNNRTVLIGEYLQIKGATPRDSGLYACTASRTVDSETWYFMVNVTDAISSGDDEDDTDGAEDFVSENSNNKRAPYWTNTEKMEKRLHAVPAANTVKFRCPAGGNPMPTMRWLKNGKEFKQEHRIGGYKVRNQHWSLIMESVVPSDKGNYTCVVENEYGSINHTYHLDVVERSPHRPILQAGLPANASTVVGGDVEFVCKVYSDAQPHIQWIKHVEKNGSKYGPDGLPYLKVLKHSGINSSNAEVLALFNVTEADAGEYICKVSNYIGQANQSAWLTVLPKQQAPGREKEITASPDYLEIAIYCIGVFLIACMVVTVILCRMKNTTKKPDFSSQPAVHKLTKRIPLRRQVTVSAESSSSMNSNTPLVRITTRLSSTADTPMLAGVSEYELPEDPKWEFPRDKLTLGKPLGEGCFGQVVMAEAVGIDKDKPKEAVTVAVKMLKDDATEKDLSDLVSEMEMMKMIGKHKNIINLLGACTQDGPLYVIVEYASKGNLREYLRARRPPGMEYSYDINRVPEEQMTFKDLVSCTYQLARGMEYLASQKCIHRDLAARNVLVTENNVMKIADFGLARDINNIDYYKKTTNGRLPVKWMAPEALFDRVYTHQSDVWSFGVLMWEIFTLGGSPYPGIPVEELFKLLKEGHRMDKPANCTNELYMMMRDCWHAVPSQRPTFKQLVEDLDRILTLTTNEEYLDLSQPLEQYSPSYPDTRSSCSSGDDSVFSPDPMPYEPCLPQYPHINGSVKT
The experiment in a line: immunocytochemistry on CHO cells.

For assay [2], the target named is T2, Flag-FGFR2-IIIc expressed on CHO cells (human, UniProt P21802 22-821).
T2 construct: whole, on cells; also called CHO-FGFR2-IIIc; CHO-IIIc; not shown: Flag-tag at the N-terminus
The experiment in a line: cell-based binding assay on stable CHO-FGFR2-IIIc cells, method of Beatty et al.

For assay [3], the target named is T2, Flag-FGFR2-IIIc expressed on CHO cells. The experiment in a line: cell-based binding assay (cell ELISA) on stable CHO-FGFR2-IIIc cells. (In general: An ELISA detects its analyte on a solid surface through an enzyme-linked reagent.)
Assay [4] has as its target T3, FGFR2-IIIc (receptor protein of FIG. 52C) (UniProt P21802 152-377, limits assumed). The assay can be described thus: ELISA with biotinylated Atto-HuMab-01; the receptor concentration is varied (x axis: FGFR receptor concentration, nM).
The target of assay [5] is T3, FGFR2-IIIc (receptor protein of FIG. …). The assay can be described thus: binding curves of biotinylated antibody on FGF receptors (FIG. 52C), format not told; biotinylated antibody, FIG. 52C receptor panel.
The target of assay [6] is T4, FGF8b (UniProt P55075-3 23-215).
T4 construct: Coated on ELISA plates; also called ligand protein FGF8b
T4 sequence (looked up): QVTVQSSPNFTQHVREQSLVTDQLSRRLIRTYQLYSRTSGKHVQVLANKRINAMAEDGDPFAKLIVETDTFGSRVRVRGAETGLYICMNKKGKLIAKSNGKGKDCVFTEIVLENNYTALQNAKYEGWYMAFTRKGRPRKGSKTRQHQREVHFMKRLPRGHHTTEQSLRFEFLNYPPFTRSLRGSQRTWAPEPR
The assay can be described thus: ligand binding ELISA (data not shown).

Assay [7] deals with T5, human ferritin (Fer) (human, UniProt P02794 2-183; P02792 2-175, Natural ferritin is a 24-subunit shell of H and L chains in a tissue-dependent ratio, with an iron core. The letters carry one copy of each subunit.).
T5 construct: also called Feritin
The experiment in a line: phage ELISA on coated protein.

Assay [8] deals with T6, 128AA-mFc (128-amino acid loop-3 fragment of FGFR2IIIc fused to mouse Fc) (human).
T6 chain: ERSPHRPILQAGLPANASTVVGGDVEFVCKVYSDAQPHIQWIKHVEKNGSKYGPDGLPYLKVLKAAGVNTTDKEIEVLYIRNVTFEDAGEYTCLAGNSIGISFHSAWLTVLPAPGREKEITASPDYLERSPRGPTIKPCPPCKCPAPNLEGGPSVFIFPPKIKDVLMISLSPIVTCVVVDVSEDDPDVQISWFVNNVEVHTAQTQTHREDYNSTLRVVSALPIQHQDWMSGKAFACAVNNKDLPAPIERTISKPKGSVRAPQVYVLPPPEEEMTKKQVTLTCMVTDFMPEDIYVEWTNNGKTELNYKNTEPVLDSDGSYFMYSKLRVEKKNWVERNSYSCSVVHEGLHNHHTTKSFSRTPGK
The experiment in a line: phage ELISA on coated protein.

Assay [9] addresses human ovalbumin (OA) (human). The experiment in a line: phage ELISA on coated protein.
Assay [10] concerns the target T5, human ferritin (Fer). The experiment in a line: phage ELISA on coated protein. This is another data set of the same source.
In assay [11] the target is T1, Flag-FGFR2-IIIb expressed on CHO cells. The assay can be described thus: immunocytochemical staining of CHO cells transiently expressing FGFR2IIIb.
Assay [12] has as its target B2. The assay can be described thus: phage ELISA, plate coated with FGFR2 IIIb Fc fusion (whole extracellular domain).

B1: Atto-HuMab-01 (full-length human IgG1) (antibody, V domains shown)
VH: QVQLVQSGAEVKKPGSSVKVSCKASGGTFSSYAISWVRQAPGQGLEWMGRIIPIFGTANYAQKFQGRVTITADESTSTAYMELNSLRSEDTAVYYCARDRWDWNDAFDIWGQGTMVTVSS
VL: not shown
notes: also called Atto-01
Consider B1, for which, in assay [1], the binding result is given as “no binding (tested: 1ug/ml)”. Further, the results for the dissociation constant Kd in assay [2] and in assay [5] were 0.7 nM and roughly 0.2 nM, respectively. In addition, the entries for the “EC50 (read off the curve)” value in assay [3] and in [4] were roughly 0.4 nM and roughly 0.2 nM, respectively.
Consider B2, for which, in [6], the binding result is “no binding”.

B3: human scFv clone 8, phage-displayed (scFv)
scFv: QSVLTQPPSVSAAPGQKVTISCSGSSSNIGNNYVSWYQQLPGTAPKLLIYDNNKRPSGIPDRFSGSKSGTSATLAISGLQSEDEADYYCAAWDDSLNGVVFGGGTKLTVLGSGGSTITSYNVYYTKLSSSGTQVQLVQSGAEVKKPGSSVKVSCKASGGTFSSYAISWVRQAPGQGLEWMGRIIPIFGTANYAQKFQGRVTITADESTSTAYMELNSLRSEDTAVYYCARDRWDWNDAFDIWGQGTMVTVSS
notes: also called scFv-8; Atto-HuMab-08
Regarding B3, the binding result in assay [7], in assay [11] and in assay [12] was “no binding” in each case. The “OD (450 nm)” value in [8] worked out at 0.215; in assay [9], 0.02; in assay [10] it was 0.011.
